Entries after “also recorded” stand apart in the source; their conditions may differ. Ends that are not written are not given here.
Key:
35S-HaPrPsen = 35S-HaPrPsen (Mesocricetus auratus, UniProt P04273); type: biochemical, hamster
[1] = molecular target: hamster PrP conversion reaction (PrPsen to PrPres) (Mesocricetus auratus, UniProt P04273); assay: biochemical; design: species or system Syrian golden hamster

Substance | peptide induced aggregation of 35S-HaPrPsen (35S-HaPrPsen) | inhibition of the conversion reaction (in words) [1] | IC50 [1] [µM]
Aβ1-40 | caused aggregation and pelleting of 35S-HaPrPsen | gave no inhibition of conversion; also recorded: unable to inhibit the PrPsen to PrPres conversion at all concentrations tested | –
GAVVGGLGGYMLGSAMSR [P119-130] | – | – | < 100

From US6355610B2 (priority 1998, dated 2002)
